Test [1] deals with T1, SARS-CoV-2 Spike (S) trimer (SARS-CoV-2, UniProt P0DTC2 14-1208).
T1 construct: also called Spike trimer
The experiment in a line: ELISA, S trimer coated, 1:50 dilution. (An ELISA detects its analyte on a solid surface through an enzyme-linked reagent.)

The next test addresses T2, SARS-CoV-2 S1 protein (SARS-CoV-2, UniProt P0DTC2 16-685).
T2 construct: domain: S1 protein; also called S1 monomer
The experiment in a line: BLI. (In general: Biolayer interferometry detects binding as a change in optical thickness at a sensor tip.)

The target of the next test is T3, SARS-CoV-2 S2 protein (SARS-CoV-2, UniProt P0DTC2 686-1213).
T3 construct: domain: S2 protein; also called S2 monomer
The experiment in a line: BLI.

For test [2], the target named is SARS-CoV-2 Nucleocapsid (N) protein (SARS-CoV-2, UniProt P0DTC9 1-419). The experiment in a line: BLI.
The target in test [3] is T4, SARS-CoV-2 Receptor Binding Domain (RBD) (SARS-CoV-2, UniProt P0DTC2 319-541).
T4 construct: also called RBD protein
Description: BLI.

Here are results for 17 molecules from US20240025971A1 (ATRECA, published 2024).

B1: AB-009106 (antibody, V domains shown)
VH: QVQLAQSGAEVKRPGASVKVSCKASGFDLTTYGVGWVRQAPGQGLEWMGWISGSSGDTHYAQQFQDRVTMTTDTPTSTAYMELRSLRSDDTAVYYCVRENIAHYGSRTFLVRYYRGMDVWGQGTTVTVAS
VL: QSALTQPASVSGSPGQSITITCTGSSSDIGGFDFVSWYQQYPGKAPKLVISEVTNRPSGVSIRFSGSKSGNTASLTISGLQAEDEADYYCSSYASSYPTTNTRVFGTGTKVTVL
notes: human IgG1
Take B1: the “Optical Density (OD; 450 nm)” value in test [1] was found to be 0.1 OD450.

B2: AB-009174 (antibody, V domains shown)
VH: QVQLQQWGAGLLKPSETLSLTCAVYGESFSGYYWNWIRQPPGKGLEWIGEIDQSGSTNYNPSLKSRVTISVDTSKNQFSLKLTSVTAADTAVYYCARVSGRMQLWLRAGYMDVWDKGTTVTVSS
VL: QSALTQPASVSGSPGQSITISCTGTSSDVGRYNYVSWYQQHPGKAPKLMIYEVSNRPSGVSNRFSGSKSGNTASLTISGLQAEDEADYYCSSYTTSSTRVFGGGTKLTVL
notes: human IgG1
In the case of B2, the binding result (in the test with SARS-CoV-2 S1 protein; with SARS-CoV-2 S2 protein; in test [2]) was “no binding (tested: 300 nM)” in each case.

B3: AB-009226 (antibody, V domains shown)
VH: not shown
VL: QSALTQPASVSGSPGQSITISCTGTSSDVGGYNYVSWYQQHPGKAPKLMIYEVSNRPSGVSNRFSGSKSGNTASLTISGLQAEDEADYYCSSYTSSSTLYVFGTGTKVTVL
notes: human IgG1
In the case of B3, in test [1], the “Optical Density (OD; 450 nm)” value stood at 2.33 OD450.

B4: AB-009237 (antibody, V domains shown)
VH: QVQLLQSGAEVKKPGASVSVSCKASGFTFTSYYFHWVRQAPGQGLEWMGIVSPAGGSTNYAQKFQGRVTMTRDTSTSTVHMELRNVRYDDTAVFYCARSVYCSSPSCPHGMDVWGPGTMVTVSS
VL: DIQVTQSPSTLSASVGDRVTITCRASQSILTYLAWYQQKPGKAPNLLIYKASNLQSGVPSRFSGSGSGTEFTLTISSLQPDDFATYHCQQYKSYPFSFGQGTKLAIK
notes: human IgG1
Take B4: the binding result (with SARS-CoV-2 S1 protein; with SARS-CoV-2 S2 protein; in test [2]) was “no binding (tested: 300 nM)” throughout.

B5: AB-009231 (antibody, V domains shown)
VH: EVQLVESGGGLVQPGGSLRLSCAASGFTFSSYWMSWVRQAPGKGLEWVANIKQDGSEKYYVDSVKGRFTISRDNAKNSLYLQMNSLRAEDTAVYYCARVSMRFLEWSFYYYYYMDVWGKGTTVTVSS
VL: SSELTQDPAVSVALGQTVRITCQGDSLRSYYASWYQQKPGQAPVLVIYGKNNRPSGIPDRFSGSSSGNTASLTITGAQAEDEADYYCNSRDSSGNHLGVVFGGGTKLTVL
notes: human IgG1
In the case of B5, the binding result (with SARS-CoV-2 S1 protein; in the test with SARS-CoV-2 S2 protein; in test [2]) was “no binding (tested: 300 nM)” each time.

B6: AB-009239 (antibody, V domains shown)
VH: QVHLEESGGGVVQPGRSLRLSCAASGFTFSGYAMHWVRQAPGKGLAWVAVISYDGTNKYYTDSVKGRFSISRDNSNNTLYLQMNSLRTEDTALYYCARALTGYYGQFDFDSWGQGTLVTVSS
VL: DVVMTQSPLSLPVTLGQPASISCRSSQSLVHSDGHTYLNWIQQRPGQSPRRLIYKVSNRDSGVPDRFSGSGSGTDFTLKISRVEADDVGIYYCVQGTHWPPWTFGQGTKVEIK
notes: human IgG1
With B6, the binding result (with SARS-CoV-2 S1 protein; with SARS-CoV-2 S2 protein; in test [2]) was “no binding (tested: 300 nM)” throughout.

B7: AB-009244 (antibody, V domains shown)
VH: EVQLVESGGGLVQPGGSLRLSCAASGFAFNTYGINWVRQAPGKGLEWVSFISSRSTTIHYADSVRGRFTISRDNAKNSLYLQMNNLRDEDTAVYYCARDLLIWFGETGAFDIWGQGTMVTVSS
VL: EVVMTQSPATLSVSSGERVTLSCRASQSVSNNLAWYQQKPGQAPRLLIYGASTRATGFPARFSGSGSGTEFTLTISSLQSEDFAVYYCQQYNIWPPGTFGQGTKLEIK
notes: human IgG1
With B7, the binding result (in the test with SARS-CoV-2 S1 protein; in the test with SARS-CoV-2 S2 protein; in test [2]) was “no binding (tested: 300 nM)” each time.

B8: AB-009110 (antibody, V domains shown)
VH: QVQLVQSGAEVKEPGASVKVSCNASGYIFTSYGISWVRQAPGQGLEWVGWISGNNGNTNYAQKFQGRVTLTTDTSTSTAYLELRSLTSADTGVYFCARARLPSAYWGPGTLLTVSS
VL: EILLTQSPATLSVSPGERGSLSCRASQSVGTNLAWYQQKPGQAPRLLIYGASARATGIPARFSGSGSGTEFTLTISSLQSEDFGVYYCQQYNDWPPWTFGQGTKVEIK
notes: human IgG1
With B8, the “Optical Density (OD; 450 nm)” value in test [1] came out at 0.081 OD450.

B9: AB-009221 (antibody, V domains shown)
VH: EVQLVESGGGLVQPGGSLRLSCAASGFTVSSNYMSWVRQAPGKGLEWVSVIYSGGSTYYADSVKGRFTISRHNSKNTLYLQMNSLRAEDTAVYYCARDRNAFDIWGQGTMVIVSS
VL: DIQMTQSPSSLSASVGDRVSITCQASQDISNDLNWYQQKPGKAPKLLVYDASKLETGVPPRFSGSGSGTDFTFTISSLQPEDIATYYCQQYDNLPLYSFGQGTKLEIK
notes: human IgG1
As for B9, the binding result (in the test with SARS-CoV-2 S2 protein; in test [2]) was “no binding (tested: 300 nM)” throughout.

B10: AB-009095 (antibody, V domains shown)
VH: EVQLVQSGAEVKKPGESLIISCTGSGYTFATFWITWVRQMPGKGLEWLGRIDPSDSYTNYNPSFQGHVTVSVDRSINTAYLELTSLKASDTAIYYCARQMYNTGWPIPNYSDYWGQGTLVTVSS
VL: QSALTQPPSASGSPGQSVTISCAGASTDVGVYNFVSWYQQHPGKAPKLIIFDVNKRPSGVPDRFSGSKSGNTASLTVSGLQAEDEADYYCSSYEVGNNFVFGTGTKVTVL
notes: human IgG1
As to B10, the binding result (in test [3]; with SARS-CoV-2 S1 protein) was “no binding (tested: 300 nM)” each time.

B11: AB-009202 (antibody, V domains shown)
VH: QVQLVESGGGVVQPGRSLRLSCAASGFTFSSYGMHWVRQAPGKGLEWVAVIWYDGSNKYYADSVKGRFTISRDNSKNTLYLQMNSLRAEDTAVYYCARDGGPEYYFDYWGQGTLVTVSS
VL: SYELTQPPSVSVSPGQTARITCSGDALPKQYAYWYQQKPGQAPVLVIYKDSERPSGIPERFSGSSSGTTVTLTISGVQAEDEADYYCQSADSSGTYNVVFGGGTKLTVL
notes: human IgG1
As for B11, the binding result (with SARS-CoV-2 S1 protein; in the test with SARS-CoV-2 S2 protein; in test [2]) was “no binding (tested: 300 nM)” in each case.

B12: AB-009078 (antibody, V domains shown)
VH: QITLKESGPTLVKPTQTLTLTCTFSGFSLSTSGVGVGWIRQPPGKALEWLALIYWDDDKRYSPSLKSRLTITKDTSKNQVVLTMTNMDPVDTATYYCAHRPGDFWSGYYRYWGQGTLVTVSS
VL: not shown
notes: human IgG1
Take B12: the binding result (in test [3]; with SARS-CoV-2 S1 protein) was “no binding (tested: 300 nM)” each time.

B13: AB-009251 (antibody, V domains shown)
V domain 1: QVQLVQSGAEVKKPGASVKVSCKTSGYTFTTFYIHWVRQVPGQGLEWMGIINPDGGSTNYAQEFQARVTMTTDTSTSTAYMELSSLRFEDTAVFYCATSLGAPPGLSPRTGPQRRGPPGFDFWGQGTLITVSA
V domain 2: QSVLTQPPSVSGAPGQRVTISCTGSSSNIGAGYDVHWYQQLPGTAPKLLIFDNNNRPSGVPYRFSGSRSGTSASLAITGLQPEDEADYYCQSYDSSLSGRVFGGGTRVTVL
notes: human IgG1
As to B13, the binding result (with SARS-CoV-2 S2 protein; in test [2]) was “no binding (tested: 300 nM)” in each case. Moreover, the “Optical Density (OD; 450 nm)” value in test [1] came out at 0.886 OD450.

B14: AB-009080 (antibody, V domains shown)
VH: QVQLQQWGAGLLKPSETLSLTCAVYGGSFSGYYWSWIRQPPGKGLEWIGEINHSGSTNYNPSLKSRVTISVDTSKNQFSLKLSSVTAADTAVYYCARGLPVTTFYYYYYGMDVWGQGTTVTVSS
VL: not shown
notes: human IgG1
Regarding B14, the “Optical Density (OD; 450 nm)” value in test [1] was determined as 0.166 OD450.

B15: AB-009083 (antibody, V domains shown)
VH: EVHLLESGGGLVQPGGSLTLTCAASGFSFGNYVMGWVRQAPGKGLEWVSSIFGSGANPHYGGSVKGRFTISRDNSQNTLFLQMDSLTAEDTAVYYCARDGGTMVGGIITGGFNYFDSWGQGTLVTVSS
VL: EIVLTQSPASLSLSPGGWATLSCRASRSIGNSLAWYQQRPGQAPRLLIYDASNRATGIPARFSGSGSGTDFTLTISSLEPEDFAIYYCQQRNSWPPLYTFGQGTKLEIK
notes: human IgG1
Take B15: the “Optical Density (OD; 450 nm)” value in test [1] came out at 0.249 OD450.

B16: AB-009119 (antibody, V domains shown)
VH: EVQLVESGGGLVQPGGSLKLSCAASGFTFSGSAMHWVRQASGKGLEWVGRIRSKANSYATAYAASVKGRFTISRDDSKNTAYLQMNSLKTEDTAVYYCTRHGTTVNWGQGTLVTVSS
VL: not shown
notes: human IgG1
As for B16, the binding result (in test [3]; in the test with SARS-CoV-2 S1 protein) was “no binding (tested: 300 nM)” in each case.

B17: AB-009665 (antibody, V domains shown)
VH: QVQLVQSGAEVKKPGASVKVSCKVSGYTLIELSMHWVRQAPGKGLEWMGGFDPEDGETIYAQKFQGRVTMTEDTSTDTAYMELSSLRSEDTAVYYCAAARVFGVATWFDPWGQGTLVTVSS
VL: QSVLTQPPSVSAAPGQKVTISCSGSSSNIGNNYVSWYQQLPGTAPKLLIYDNNKRPSGIPDRFSGSKSGTSATLGITGLQTGDEADYYCGTWDSSLSAGVFGGGTKLTVL
notes: human IgG1
As for B17, the binding result (in test [3]; with SARS-CoV-2 S1 protein; with SARS-CoV-2 S2 protein) was “no binding (tested: 300 nM)” in each case. In addition, in test [1], the “Optical Density (OD; 450 nm)” value was determined as 1.38 OD450.
